Laboratory results: patent publication US20120178908A1 (Novo Nordisk, published 2012)
Positions count from the first letter of the chain named. Names may count otherwise.

T1: hTF.1-219 (soluble tissue factor)
T1 chain: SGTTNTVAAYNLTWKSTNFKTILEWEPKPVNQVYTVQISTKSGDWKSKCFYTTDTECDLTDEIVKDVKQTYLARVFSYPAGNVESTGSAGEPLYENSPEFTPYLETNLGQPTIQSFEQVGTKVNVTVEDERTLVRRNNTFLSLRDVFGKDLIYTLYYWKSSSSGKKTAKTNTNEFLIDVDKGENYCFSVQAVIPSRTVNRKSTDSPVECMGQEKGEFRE

T2: TLT-1 18-188 relipidated in 20:80 PS:PC vesicles (human) (UniProt Q86YW5)
T2 sequence: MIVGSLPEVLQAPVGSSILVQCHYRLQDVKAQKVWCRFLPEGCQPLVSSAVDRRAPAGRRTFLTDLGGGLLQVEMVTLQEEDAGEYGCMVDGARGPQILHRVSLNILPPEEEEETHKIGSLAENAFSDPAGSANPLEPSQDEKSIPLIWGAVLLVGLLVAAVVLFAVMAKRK

T3: TLT-1 receptor on the surface of activated human platelets (human) (UniProt Q86YW5)
T3 sequence: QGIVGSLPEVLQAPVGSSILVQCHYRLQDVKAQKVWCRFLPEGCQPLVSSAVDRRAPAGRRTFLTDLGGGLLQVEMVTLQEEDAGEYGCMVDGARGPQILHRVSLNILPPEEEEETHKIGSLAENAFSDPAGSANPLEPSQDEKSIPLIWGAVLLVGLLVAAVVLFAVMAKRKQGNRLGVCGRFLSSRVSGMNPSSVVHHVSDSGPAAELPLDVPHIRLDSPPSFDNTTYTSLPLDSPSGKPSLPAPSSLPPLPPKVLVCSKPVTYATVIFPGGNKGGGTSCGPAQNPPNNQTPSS

T4: TLT-1 18-188 relipidated in 20:80 PS:PC vesicles (human, UniProt Q86YW5 18-188)
T4 sequence: T2 sequence

T5: TLT-1 receptor on the surface of activated human platelets (human, UniProt Q86YW5 16-311)
T5 sequence: T3 sequence

B1: Factor VIIa (FVIIa) (protein)
chain: ANAFLEELRPGSLERECKEEQCSFEEAREIFKDAERTKLFWISYSDGDQCASSPCQNGGSCKDQLQSYICFCLPAFEGRNCETHKDDQLICVNENGGCEQYCSDHTGTKRSCRCHEGYSLLADGVSCTPTVEYPCGKIPILEKRNASKPQGRIVGGKVCPKGECPWQVLLLVNGAQLCGGTLINTIWVVSAAHCFDKIKNWRNLIAVLGEHDLSEHDGDEQSRRVAQVIIPSTYVPGTTNHDIALLRLHQPVVLTDHVVPLCLPERTFSERTLAFVRFSLVSGWGQLLDRGATALELMVLNVPRLMTQDCLQQSRKVGDSPNITEYMFCAGYSDGSKDSCKGDSGGPHATHYRGTWYLTGIVSWGQGCATVGHFGVYTRVSQYIEWLQKLMRSEPRPGVLLRAPFP
B2: Fab AP-3-LC-L4a-hTF.1-219; VH-CH1-HPC4 (other)
light: DIVMTQAAPSVPVTPGESVSISCRSSRSLLHSNGNTYLCWFLQRPGQSPQLLIYRMSNLASGVPDRFSGSGSGTAFTLRISRVEAEDVGVYYCMQHLEYPFTFGSGTKLEIKRTVAAPSVFIFPPSDEQLKSGTASVVCLLNNFYPREAKVQWKVDNALQSGNSQESVTEQDSKDSTYSLSSTLTLSKADYEKHKVYACEVTHQGLSSPVTKSFNRGECGSGGGGSGGGGSGGGGSSGTTNTVAAYNLTWKSTNFKTILEWEPKPVNQVYTVQISTKSGDWKSKCFYTTDTECDLTDEIVKDVKQTYLARVFSYPAGNVESTGSAGEPLYENSPEFTPYLETNLGQPTIQSFEQVGTKVNVTVEDERTLVRRNNTFLSLRDVFGKDLIYTLYYWKSSSSGKKTAKTNTNEFLIDVDKGENYCFSVQAVIPSRTVNRKSTDSPVECMGQEKGEFRE
heavy: QVQLQQSGAELVRPGTSVKISCKASGYTFTNYWLGWVKQRPGHGLEWIGDIYPGGGYNKYNENFKGKATLTADTSSSTAYMQLSSLTSEDSAVYFCAREYGNYDYAMDSWGQGTSVTVSSASTKGPSVFPLAPCSRSTSESTAALGCLVKDYFPEPVTVSWNSGALTSGVHTFPAVLQSSGLYSLSSVVTVPSSSLGTKTYTCNVDHKPSNTKVDKRVESKEDQVDPRLIDGK
B3: Fab AP-3-LC.C34S-L4a-hTF.1-219; VH-CH1-HPC4 (other)
light: B2 light with C39S
heavy: B2 heavy
B4: Fab 0012-LC-L6-TF;VH-CH1-HPC4 (protein)
light chain-linker-TF: DVVMTQTPLSLPVSLGDQASISCRSSQSLVHRNGNTYFHWCLQKPGQSPKLLIYKVSNRFSGVPDRFSGSGSGTDFTLKISRVEAEDLGVYFCSQSTHVPYTFGGGTKLEIKRTVAAPSVFIFPPSDEQLKSGTASVVCLLNNFYPREAKVQWKVDNALQSGNSQESVTEQDSKDSTYSLSSTLTLSKADYEKHKVYACEVTHQGLSSPVTKSFNRGECGGGGSGGGGSGSGGGGSGGGGSGGGGSSGTTNTVAAYNLTWKSTNFKTILEWEPKPVNQVYTVQISTKSGDWKSKCFYTTDTECDLTDEIVKDVKQTYLARVFSYPAGNVESTGSAGEPLYENSPEFTPYLETNLGQPTIQSFEQVGTKVNVTVEDERTLVRRNNTFLSLRDVFGKDLIYTLYYWKSSSSGKKTAKTNTNEFLIDVDKGENYCFSVQAVIPSRTVNRKSTDSPVECMGQEKGEFRE
VH-CH1-HPC4: EVKLLESGGGLVQPGGSLKLSCAASGFDFSRYWMTWVRQAPGKGLEWIGEINPDSSTINYTPSLKDKFIISRDNAKNTLYLQMSEVRSEDTALYYCASGVFTSWGQGTLVTVSAASTKGPSVFPLAPCSRSTSESTAALGCLVKDYFPEPVTVSWNSGALTSGVHTFPAVLQSSGLYSLSSVVTVPSSSLGTKTYTCNVDHKPSNTKVDKRVESKEDQVDPRLIDGK
B5: Fab 0012-LC-L9-TF;VH-CH1-HPC4 (protein)
light chain-linker-TF: DVVMTQTPLSLPVSLGDQASISCRSSQSLVHRNGNTYFHWCLQKPGQSPKLLIYKVSNRFSGVPDRFSGSGSGTDFTLKISRVEAEDLGVYFCSQSTHVPYTFGGGTKLEIKRTVAAPSVFIFPPSDEQLKSGTASVVCLLNNFYPREAKVQWKVDNALQSGNSQESVTEQDSKDSTYSLSSTLTLSKADYEKHKVYACEVTHQGLSSPVTKSFNRGECGGGGSGGGGSGGGGSGGGGSGGGGSGSGGGGSGGGGSGGGGSSGTTNTVAAYNLTWKSTNFKTILEWEPKPVNQVYTVQISTKSGDWKSKCFYTTDTECDLTDEIVKDVKQTYLARVFSYPAGNVESTGSAGEPLYENSPEFTPYLETNLGQPTIQSFEQVGTKVNVTVEDERTLVRRNNTFLSLRDVFGKDLIYTLYYWKSSSSGKKTAKTNTNEFLIDVDKGENYCFSVQAVIPSRTVNRKSTDSPVECMGQEKGEFRE
VH-CH1-HPC4: B4 VH-CH1-HPC4
B6: Fab 0012-LC-L8-TF;VH-CH1-HPC4 (protein)
light chain-linker-TF: DVVMTQTPLSLPVSLGDQASISCRSSQSLVHRNGNTYFHWCLQKPGQSPKLLIYKVSNRFSGVPDRFSGSGSGTDFTLKISRVEAEDLGVYFCSQSTHVPYTFGGGTKLEIKRTVAAPSVFIFPPSDEQLKSGTASVVCLLNNFYPREAKVQWKVDNALQSGNSQESVTEQDSKDSTYSLSSTLTLSKADYEKHKVYACEVTHQGLSSPVTKSFNRGECGGGGSGGGGSGGGGSGGGGSGSGGGGSGGGGSGGGGSSGTTNTVAAYNLTWKSTNFKTILEWEPKPVNQVYTVQISTKSGDWKSKCFYTTDTECDLTDEIVKDVKQTYLARVFSYPAGNVESTGSAGEPLYENSPEFTPYLETNLGQPTIQSFEQVGTKVNVTVEDERTLVRRNNTFLSLRDVFGKDLIYTLYYWKSSSSGKKTAKTNTNEFLIDVDKGENYCFSVQAVIPSRTVNRKSTDSPVECMGQEKGEFRE
VH-CH1-HPC4: B4 VH-CH1-HPC4
B7: Fab 0012-LC-L7-TF;VH-CH1-HPC4 (protein)
light chain-linker-TF: DVVMTQTPLSLPVSLGDQASISCRSSQSLVHRNGNTYFHWCLQKPGQSPKLLIYKVSNRFSGVPDRFSGSGSGTDFTLKISRVEAEDLGVYFCSQSTHVPYTFGGGTKLEIKRTVAAPSVFIFPPSDEQLKSGTASVVCLLNNFYPREAKVQWKVDNALQSGNSQESVTEQDSKDSTYSLSSTLTLSKADYEKHKVYACEVTHQGLSSPVTKSFNRGECGGGGSGGGGSGGGGSGSGGGGSGGGGSGGGGSSGTTNTVAAYNLTWKSTNFKTILEWEPKPVNQVYTVQISTKSGDWKSKCFYTTDTECDLTDEIVKDVKQTYLARVFSYPAGNVESTGSAGEPLYENSPEFTPYLETNLGQPTIQSFEQVGTKVNVTVEDERTLVRRNNTFLSLRDVFGKDLIYTLYYWKSSSSGKKTAKTNTNEFLIDVDKGENYCFSVQAVIPSRTVNRKSTDSPVECMGQEKGEFRE
VH-CH1-HPC4: B4 VH-CH1-HPC4
B8: Fab 0012-LC-L4a-hTF.1-219; VH-CH1-HPC4 (other)
light: DVVMTQTPLSLPVSLGDQASISCRSSQSLVHRNGNTYFHWCLQKPGQSPKLLIYKVSNRFSGVPDRFSGSGSGTDFTLKISRVEAEDLGVYFCSQSTHVPYTFGGGTKLEIKRTVAAPSVFIFPPSDEQLKSGTASVVCLLNNFYPREAKVQWKVDNALQSGNSQESVTEQDSKDSTYSLSSTLTLSKADYEKHKVYACEVTHQGLSSPVTKSFNRGECGSGGGGSGGGGSGGGGSSGTTNTVAAYNLTWKSTNFKTILEWEPKPVNQVYTVQISTKSGDWKSKCFYTTDTECDLTDEIVKDVKQTYLARVFSYPAGNVESTGSAGEPLYENSPEFTPYLETNLGQPTIQSFEQVGTKVNVTVEDERTLVRRNNTFLSLRDVFGKDLIYTLYYWKSSSSGKKTAKTNTNEFLIDVDKGENYCFSVQAVIPSRTVNRKSTDSPVECMGQEKGEFRE
heavy: B4 VH-CH1-HPC4

Columns and labels:
[1] = molecular target: Fab-hTF.1-219 fusion proteins (those tested in FIG. 7)
[2] = molecular target: mAb-hTF.1-219 fusion proteins (those tested in FIG. 7)
[3] = molecular target: T1, hTF.1-219 (soluble tissue factor)
[4] = molecular target: T6, GPIIbIIIa receptor on human platelets (human, UniProt P08514 32-1039; P05106 27-788); experiment: cell-based or functional assay
[5] = molecular target: T6, GPIIbIIIa receptor on human platelets; experiment: cell-based or functional assay; remark: listed apart in the source
[6] = molecular target: T2, TLT-1 18-188 relipidated in 20:80 PS:PC vesicles (human)
[7] = molecular target: T3, TLT-1 receptor on the surface of activated human platelets (human)
[8] = molecular target: T4, TLT-1 18-188 relipidated in 20:80 PS:PC …; experiment: cell-based or functional assay
[9] = molecular target: T5, TLT-1 receptor on the surface of …; experiment: cell-based or functional assay

T6 sequence (P08514 32-1039, chain 1 of 2): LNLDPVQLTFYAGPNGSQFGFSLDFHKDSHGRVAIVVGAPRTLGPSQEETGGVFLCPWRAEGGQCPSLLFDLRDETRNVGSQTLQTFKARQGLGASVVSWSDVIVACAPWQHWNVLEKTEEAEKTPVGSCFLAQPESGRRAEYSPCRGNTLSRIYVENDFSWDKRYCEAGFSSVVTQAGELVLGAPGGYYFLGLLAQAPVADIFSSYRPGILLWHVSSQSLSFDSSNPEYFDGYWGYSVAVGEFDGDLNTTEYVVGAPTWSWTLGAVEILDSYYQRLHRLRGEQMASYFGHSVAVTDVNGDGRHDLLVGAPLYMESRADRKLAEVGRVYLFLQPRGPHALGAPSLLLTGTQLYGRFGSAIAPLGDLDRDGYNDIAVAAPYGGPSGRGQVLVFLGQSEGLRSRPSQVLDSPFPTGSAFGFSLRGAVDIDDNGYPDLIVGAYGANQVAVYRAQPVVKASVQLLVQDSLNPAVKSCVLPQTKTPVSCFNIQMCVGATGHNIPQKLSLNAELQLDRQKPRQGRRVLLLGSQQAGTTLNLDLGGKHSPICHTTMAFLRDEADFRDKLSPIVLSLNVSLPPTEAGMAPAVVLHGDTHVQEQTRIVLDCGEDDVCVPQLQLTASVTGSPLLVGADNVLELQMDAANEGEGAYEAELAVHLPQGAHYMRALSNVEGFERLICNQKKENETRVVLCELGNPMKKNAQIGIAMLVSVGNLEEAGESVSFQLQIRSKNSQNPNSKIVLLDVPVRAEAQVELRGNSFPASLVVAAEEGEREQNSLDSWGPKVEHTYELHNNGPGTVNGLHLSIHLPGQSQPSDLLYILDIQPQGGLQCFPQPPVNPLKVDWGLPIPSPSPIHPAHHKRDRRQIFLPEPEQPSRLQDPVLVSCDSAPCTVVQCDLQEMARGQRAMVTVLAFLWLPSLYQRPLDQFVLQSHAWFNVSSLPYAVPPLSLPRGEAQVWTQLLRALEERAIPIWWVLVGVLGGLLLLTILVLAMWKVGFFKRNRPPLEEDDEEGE
T6 sequence (P05106 27-788, chain 2 of 2): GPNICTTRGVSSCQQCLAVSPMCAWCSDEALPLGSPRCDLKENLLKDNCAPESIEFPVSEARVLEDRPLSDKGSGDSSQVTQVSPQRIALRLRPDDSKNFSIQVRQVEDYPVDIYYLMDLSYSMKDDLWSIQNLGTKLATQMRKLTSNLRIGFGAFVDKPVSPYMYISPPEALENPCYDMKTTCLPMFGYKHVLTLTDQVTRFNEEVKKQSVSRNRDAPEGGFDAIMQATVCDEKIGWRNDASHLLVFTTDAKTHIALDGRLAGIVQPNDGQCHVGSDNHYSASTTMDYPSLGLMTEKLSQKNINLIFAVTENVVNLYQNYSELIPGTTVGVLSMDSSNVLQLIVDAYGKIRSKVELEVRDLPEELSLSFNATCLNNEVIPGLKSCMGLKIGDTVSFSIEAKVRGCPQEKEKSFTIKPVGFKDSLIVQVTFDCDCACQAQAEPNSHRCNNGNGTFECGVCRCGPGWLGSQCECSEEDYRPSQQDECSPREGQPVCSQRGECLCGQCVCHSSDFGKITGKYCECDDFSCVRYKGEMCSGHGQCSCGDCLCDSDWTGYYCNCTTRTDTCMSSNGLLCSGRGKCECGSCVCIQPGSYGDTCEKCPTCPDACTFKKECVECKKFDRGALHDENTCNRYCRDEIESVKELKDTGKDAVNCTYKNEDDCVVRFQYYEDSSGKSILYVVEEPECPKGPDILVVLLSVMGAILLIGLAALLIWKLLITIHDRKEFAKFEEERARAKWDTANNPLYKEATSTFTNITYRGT

Binder | FVII-mediated FXa generation % Activity lipidated TLT-1 [6] | FVIIa-mediated FXa generation % Activity lipidated TLT-1 [6] | FVII-mediated FXa generation % Activity activated plts (n 1) [7] | FVIIa-mediated FXa generation % Activity activated plts (n 1) [7] | further results
B1 | – | – | – | – | FVIIa amidolytic activity (chromogenic substrate S2288, A405) [1]: stimulate FVIIa amidolytic activity in a concentration dependent manner indistinguishable from that induced by hTF.1-219; FVIIa amidolytic activity (chromogenic substrate S2288, A405) [2]: similarly stimulate FVIIa activity in a concentration dependent manner identical to that of hTF.1-219; FVIIa amidolytic activity (chromogenic substrate S2288, A405) [3]: Binding of hTF.1-219 to FVIIa increases the FVIIa catalytic activity
B2 | – | – | – | – | FVII-mediated FXa generation % Activity activated plts (n 1) [4]: 218%; FVIIa-mediated FXa generation % Activity activated plts (n 1) [4]: 164%; FX activation: response with resting platelets relative to activated platelets [5]: ~20 % of the response with activated platelets
B3 | – | – | – | – | FVII-mediated FXa generation % Activity activated plts (n 1) [4]: 215%; FVIIa-mediated FXa generation % Activity activated plts (n 1) [4]: 143%; FX activation: response with resting platelets relative to activated platelets [5]: ~20 % of the response with activated platelets
B4 | 94% | 101% | 95% | 91% | –
B5 | 88% | 95% | 80% | 76% | –
B6 | 94% | 98% | 86% | 81% | –
B7 | 95% | 98% | 92% | 95% | –
B8 | – | – | – | – | FVII-mediated FXa generation % Activity lipidated TLT-1 [8]: 97%; FX activation: response with resting platelets relative to activated platelets [9]: 8 % of the response with activated platelets
